Assay results taken from the supplement of paper PMC9112550, “Optimization of the antimicrobial peptide Bac7 by deep mutational scanning” (BMC Biology, 2022).

test system: Escherichia coli TOP10; assay: shrunken log2 fold change of peptide-encoding DNA abundance (4.5 h post-induction vs induction); higher = less antimicrobial activity (less host growth inhibition); conditions: time post-induction: 4.5 h; library: site-saturation at positions 5, 18, 19, 20
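Note: peptides expressed intracellularly from a pBAD plasmid library in pooled LB shake-flask culture, induced with 0.3% L-arabinose, DNA abundance read by NGS, three biological replicates, DESeq2 with apeglm shrinkage.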

Sequence	shrunken log2 fold change
RRIRFRPPRLPRPRPRPYKAPRP	-0.153
RRIRFRPPRLPRPRPRPYKKPRP	-0.415
RRIRFRPPRLPRPRPRPYLHPRP	-0.454
RRIRFRPPRLPRPRPRPYMCPRP	-0.0146
RRIRFRPPRLPRPRPRPYNAPRP	-0.714
RRIRFRPPRLPRPRPRPYNPPRP	-0.237
RRIRFRPPRLPRPRPRPYNRPRP	-0.262
RRIRFRPPRLPRPRPRPYPYPRP	-0.1
RRIRFRPPRLPRPRPRPYQFPRP	0.0166
RRIRFRPPRLPRPRPRPYRSPRP	-0.975
RRIRFRPPRLPRPRPRPYRVPRP	-0.702
RRIRFRPPRLPRPRPRPYRWPRP	-0.0143
RRIRFRPPRLPRPRPRPYSEPRP	-0.297
RRIRFRPPRLPRPRPRPYSFPRP	-0.967
RRIRFRPPRLPRPRPRPYSNPRP	-0.603
RRIRFRPPRLPRPRPRPYTFPRP	-1.3
RRIRFRPPRLPRPRPRPYTGPRP	-0.0357
RRIRFRPPRLPRPRPRPYWGPRP	-0.186
RRIRFRPPRLPRPRPRPYYDPRP	-0.072
RRIRGRPPRLPRPRPRPADWPRP	1.03
RRIRGRPPRLPRPRPRPAFLPRP	0.367
RRIRGRPPRLPRPRPRPAFQPRP	0.202
RRIRGRPPRLPRPRPRPAHMPRP	0.145
RRIRGRPPRLPRPRPRPAIRPRP	0.768
RRIRGRPPRLPRPRPRPALGPRP	1.11

Sequence	shrunken log2 fold change
RRIRGRPPRLPRPRPRPALMPRP	0.879
RRIRGRPPRLPRPRPRPAMDPRP	0.491
RRIRGRPPRLPRPRPRPAMKPRP	0.311
RRIRGRPPRLPRPRPRPAMLPRP	0.7
RRIRGRPPRLPRPRPRPAMSPRP	0.508
RRIRGRPPRLPRPRPRPASCPRP	1.06
RRIRGRPPRLPRPRPRPASFPRP	0.345
RRIRGRPPRLPRPRPRPASKPRP	0.453
RRIRGRPPRLPRPRPRPASYPRP	-0.14
RRIRGRPPRLPRPRPRPAVMPRP	0.946
RRIRGRPPRLPRPRPRPAWDPRP	0.76
RRIRGRPPRLPRPRPRPAYMPRP	-0.353
RRIRGRPPRLPRPRPRPAYSPRP	-0.0128
RRIRGRPPRLPRPRPRPAYWPRP	-0.0674
RRIRGRPPRLPRPRPRPCAWPRP	0.167
RRIRGRPPRLPRPRPRPCCGPRP	0.781
RRIRGRPPRLPRPRPRPCCPPRP	0.0328
RRIRGRPPRLPRPRPRPCCSPRP	0.107
RRIRGRPPRLPRPRPRPCDSPRP	0.0374
RRIRGRPPRLPRPRPRPCDYPRP	0.132
RRIRGRPPRLPRPRPRPCECPRP	-0.0257
RRIRGRPPRLPRPRPRPCEDPRP	0.0133
RRIRGRPPRLPRPRPRPCETPRP	0.496
RRIRGRPPRLPRPRPRPCFAPRP	0.789
RRIRGRPPRLPRPRPRPCFCPRP	0.609

Sequence	shrunken log2 fold change
RRIRGRPPRLPRPRPRPCFSPRP	0.0442
RRIRGRPPRLPRPRPRPCGMPRP	0.0775
RRIRGRPPRLPRPRPRPCHDPRP	0.458
RRIRGRPPRLPRPRPRPCINPRP	0.573
RRIRGRPPRLPRPRPRPCIPPRP	-0.165
RRIRGRPPRLPRPRPRPCIQPRP	-0.0256
RRIRGRPPRLPRPRPRPCKCPRP	-0.082
RRIRGRPPRLPRPRPRPCLIPRP	-0.183
RRIRGRPPRLPRPRPRPCMWPRP	0.29
RRIRGRPPRLPRPRPRPCNIPRP	-0.284
RRIRGRPPRLPRPRPRPCNYPRP	-0.11
RRIRGRPPRLPRPRPRPCPIPRP	-0.0298
RRIRGRPPRLPRPRPRPCQYPRP	0.0685
RRIRGRPPRLPRPRPRPCVNPRP	0.0252
RRIRGRPPRLPRPRPRPCVVPRP	0.293
RRIRGRPPRLPRPRPRPCWLPRP	-0.0298
RRIRGRPPRLPRPRPRPCWPPRP	0.455
RRIRGRPPRLPRPRPRPCYFPRP	-0.0409
RRIRGRPPRLPRPRPRPDCKPRP	0.577
RRIRGRPPRLPRPRPRPDCLPRP	0.975
RRIRGRPPRLPRPRPRPDCYPRP	0.191
RRIRGRPPRLPRPRPRPDDWPRP	1.5
RRIRGRPPRLPRPRPRPDEMPRP	-0.0376
RRIRGRPPRLPRPRPRPDFAPRP	0.724
RRIRGRPPRLPRPRPRPDGYPRP	0.222

Sequence	shrunken log2 fold change
RRIRGRPPRLPRPRPRPDIDPRP	2.17
RRIRGRPPRLPRPRPRPDIKPRP	0.547
RRIRGRPPRLPRPRPRPDIPPRP	0.23
RRIRGRPPRLPRPRPRPDIWPRP	0.598
RRIRGRPPRLPRPRPRPDIYPRP	1.05
RRIRGRPPRLPRPRPRPDLWPRP	1.79
RRIRGRPPRLPRPRPRPDMAPRP	0.882
RRIRGRPPRLPRPRPRPDPDPRP	0.776
RRIRGRPPRLPRPRPRPDPFPRP	0.302
RRIRGRPPRLPRPRPRPDPNPRP	0.522
RRIRGRPPRLPRPRPRPDPVPRP	0.951
RRIRGRPPRLPRPRPRPDQVPRP	0.656
RRIRGRPPRLPRPRPRPDRYPRP	0.152
RRIRGRPPRLPRPRPRPDSFPRP	0.00128
RRIRGRPPRLPRPRPRPDVCPRP	0.181
RRIRGRPPRLPRPRPRPDYSPRP	-0.0453
RRIRGRPPRLPRPRPRPECWPRP	1.92
RRIRGRPPRLPRPRPRPEDAPRP	1.65
RRIRGRPPRLPRPRPRPEDWPRP	1.45
RRIRGRPPRLPRPRPRPEECPRP	0.0881
RRIRGRPPRLPRPRPRPEENPRP	1.21
RRIRGRPPRLPRPRPRPEERPRP	0.55
RRIRGRPPRLPRPRPRPEFRPRP	0.634
RRIRGRPPRLPRPRPRPEHHPRP	0.262
RRIRGRPPRLPRPRPRPEHMPRP	0.396

Sequence	shrunken log2 fold change
RRIRGRPPRLPRPRPRPEIFPRP	1.02
RRIRGRPPRLPRPRPRPEKDPRP	1.27
RRIRGRPPRLPRPRPRPEKIPRP	0.672
RRIRGRPPRLPRPRPRPEKNPRP	0.921
RRIRGRPPRLPRPRPRPELEPRP	2.14
RRIRGRPPRLPRPRPRPEMFPRP	0.0463
RRIRGRPPRLPRPRPRPEMYPRP	0.837
RRIRGRPPRLPRPRPRPEPTPRP	1.52
RRIRGRPPRLPRPRPRPERYPRP	-0.107
RRIRGRPPRLPRPRPRPESKPRP	1.32
RRIRGRPPRLPRPRPRPESLPRP	0.595
RRIRGRPPRLPRPRPRPESPPRP	1.25
RRIRGRPPRLPRPRPRPETDPRP	1.34
RRIRGRPPRLPRPRPRPETNPRP	1.95
RRIRGRPPRLPRPRPRPEVDPRP	1.84
RRIRGRPPRLPRPRPRPEYCPRP	0.307
RRIRGRPPRLPRPRPRPEYHPRP	0.155
RRIRGRPPRLPRPRPRPFADPRP	2.03
RRIRGRPPRLPRPRPRPFCFPRP	0.778
RRIRGRPPRLPRPRPRPFCHPRP	0.418
RRIRGRPPRLPRPRPRPFCLPRP	0.229
RRIRGRPPRLPRPRPRPFDAPRP	-0.00556
RRIRGRPPRLPRPRPRPFDRPRP	0.0386
RRIRGRPPRLPRPRPRPFEPPRP	0.267
RRIRGRPPRLPRPRPRPFFGPRP	0.188

Sequence	shrunken log2 fold change
RRIRGRPPRLPRPRPRPFGCPRP	-0.0567
RRIRGRPPRLPRPRPRPFGEPRP	0.793
RRIRGRPPRLPRPRPRPFGNPRP	0.0288
RRIRGRPPRLPRPRPRPFGVPRP	0.446
RRIRGRPPRLPRPRPRPFIIPRP	0.102
RRIRGRPPRLPRPRPRPFKQPRP	0.13
RRIRGRPPRLPRPRPRPFMHPRP	0.416
RRIRGRPPRLPRPRPRPFMKPRP	-0.248
RRIRGRPPRLPRPRPRPFNWPRP	0.153
RRIRGRPPRLPRPRPRPFQAPRP	0.112
RRIRGRPPRLPRPRPRPFQRPRP	-0.0485
RRIRGRPPRLPRPRPRPFRHPRP	0.0102
RRIRGRPPRLPRPRPRPFTDPRP	0.143
RRIRGRPPRLPRPRPRPFTMPRP	-0.278
RRIRGRPPRLPRPRPRPFTYPRP	0.0977
RRIRGRPPRLPRPRPRPFVPPRP	0.0587
RRIRGRPPRLPRPRPRPFWFPRP	0.283
RRIRGRPPRLPRPRPRPGAEPRP	1.68
RRIRGRPPRLPRPRPRPGASPRP	0.934
RRIRGRPPRLPRPRPRPGCCPRP	1.2
RRIRGRPPRLPRPRPRPGCNPRP	0.773
RRIRGRPPRLPRPRPRPGCPPRP	0.806
RRIRGRPPRLPRPRPRPGCVPRP	1.08
RRIRGRPPRLPRPRPRPGDTPRP	0.616
RRIRGRPPRLPRPRPRPGERPRP	0.731
